In one data set the target is T1, 202B57.
T1 chain: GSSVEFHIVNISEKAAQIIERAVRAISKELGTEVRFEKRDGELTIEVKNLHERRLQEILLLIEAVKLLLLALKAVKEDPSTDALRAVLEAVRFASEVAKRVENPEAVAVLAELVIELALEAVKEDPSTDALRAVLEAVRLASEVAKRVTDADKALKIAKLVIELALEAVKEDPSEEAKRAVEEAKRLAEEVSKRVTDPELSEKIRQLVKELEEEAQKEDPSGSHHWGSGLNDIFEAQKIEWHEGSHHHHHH
Kind of data set: SEC of mixed components; linear tetramer listed in Table 6, neighbours in the chain. As for the experimental part:
Complexes and individual components were diluted in 20 mM Tris pH 8.0, 100 mM NaCl. After o/n equilibration of the mixtures at room temperature or 4 degrees C., 500 ul of sample was injected onto a Superdex™ 200 10/300 increase GL (dimers, linear assemblies) or Superose™ 6 increase 10/300 GL (symmetric assemblies) (all columns from GE healthcare) using the absorbance at 230 nm or 473 nm (for GFP tagged components) as read-out. Dimers were mixed at monomer concentrations of 5 μM or higher. Trimer and ABCD tetramer mixtures contained 5 μM of the bivalent connector, and 7.5 μM of each terminal cap (lower absolute concentrations with the same ratios were used for some trimers). ABCA tetramer mixtures contained 5 μM per bivalent connector and 15 μM terminal cap. The hexamer mixture contained 3 μM of components C and D, 3.6 μM of B and E, and 4.4 μM of A and F. The branched assembly shown in FIG. 4A contained 2.8 μM of the trivalent connector and 4 μM of each cap. For the exchange experiment shown in FIG. 5A, the ABC trimer was preincubated at concentrations of 6 μM B and 9 μM each of A and C. C′ was then added to reach a final concentration of 2 μM B, 3 μM each of A and C, and 6 μM C′.

The target in another data set is T2, DFA0.
T2 construct: Bivalent connector
T2 chain: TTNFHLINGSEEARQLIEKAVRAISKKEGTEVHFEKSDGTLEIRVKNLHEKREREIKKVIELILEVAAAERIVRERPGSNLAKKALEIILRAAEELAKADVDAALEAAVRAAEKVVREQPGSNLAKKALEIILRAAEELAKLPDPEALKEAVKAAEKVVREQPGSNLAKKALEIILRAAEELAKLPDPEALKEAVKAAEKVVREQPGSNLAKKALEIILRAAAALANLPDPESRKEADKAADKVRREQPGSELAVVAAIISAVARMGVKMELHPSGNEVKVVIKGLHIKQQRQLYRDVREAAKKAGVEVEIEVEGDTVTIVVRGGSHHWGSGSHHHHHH
Kind of data set: SEC of mixed components; trimer listed in Table 6.

Data set [1] deals with the molecule itself. Kind of data set: SEC titration of the protomer alone at several injection concentrations (Superdex 200, normalised A230); self-association.
Another data set concerns the target T3, DF284B.
T3 construct: Bivalent connector
T3 chain: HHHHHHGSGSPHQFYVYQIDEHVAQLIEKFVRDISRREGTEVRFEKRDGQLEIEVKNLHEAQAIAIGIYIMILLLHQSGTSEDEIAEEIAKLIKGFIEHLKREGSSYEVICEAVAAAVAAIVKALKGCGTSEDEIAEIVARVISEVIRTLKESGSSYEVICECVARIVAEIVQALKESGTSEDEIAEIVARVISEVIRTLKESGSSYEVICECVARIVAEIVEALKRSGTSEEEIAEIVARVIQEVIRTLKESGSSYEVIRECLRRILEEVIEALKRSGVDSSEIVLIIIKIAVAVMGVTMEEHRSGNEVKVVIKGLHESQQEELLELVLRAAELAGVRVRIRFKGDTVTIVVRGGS
Kind of data set: SEC of mixed components; trimer listed in Table 6.

The next data set has as its target T4, 101B14.
T4 construct: also called LHD101 B14
T4 single chain, LHD101 chain B fused to DHR14: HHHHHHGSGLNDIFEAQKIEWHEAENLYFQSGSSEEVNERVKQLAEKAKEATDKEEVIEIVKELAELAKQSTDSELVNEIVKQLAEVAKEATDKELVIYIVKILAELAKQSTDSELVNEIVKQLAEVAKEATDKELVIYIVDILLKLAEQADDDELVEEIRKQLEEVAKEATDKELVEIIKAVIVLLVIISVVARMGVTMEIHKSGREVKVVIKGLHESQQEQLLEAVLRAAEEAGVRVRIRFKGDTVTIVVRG
Kind of data set: SEC binding assay (Superdex 200, normalised A230) of A, B and the mixture AB.

Another data set deals with T5, 101B82.
T5 chain: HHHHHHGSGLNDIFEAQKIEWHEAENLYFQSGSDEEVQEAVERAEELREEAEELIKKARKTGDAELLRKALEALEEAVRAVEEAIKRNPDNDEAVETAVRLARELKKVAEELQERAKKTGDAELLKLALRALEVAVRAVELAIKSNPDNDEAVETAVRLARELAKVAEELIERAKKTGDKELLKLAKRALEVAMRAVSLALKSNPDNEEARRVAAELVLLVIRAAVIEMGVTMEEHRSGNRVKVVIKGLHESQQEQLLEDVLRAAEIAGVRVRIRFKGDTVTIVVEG
The description is as above.

The target of another data set is T6, 101B62.
T6 construct: also called LHD101B62
T6 chain: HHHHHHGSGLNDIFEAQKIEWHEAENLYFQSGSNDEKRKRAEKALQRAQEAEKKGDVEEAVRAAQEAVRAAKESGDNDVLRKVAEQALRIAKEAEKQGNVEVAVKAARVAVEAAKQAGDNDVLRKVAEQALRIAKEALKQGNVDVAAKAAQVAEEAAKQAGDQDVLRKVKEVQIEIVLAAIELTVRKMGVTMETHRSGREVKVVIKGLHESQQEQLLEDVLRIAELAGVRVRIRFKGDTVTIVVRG
The data set is described as above.

The target of a further data set is T7, LHD101 B8.
T7 single chain, LHD101 chain B fused to DHR8: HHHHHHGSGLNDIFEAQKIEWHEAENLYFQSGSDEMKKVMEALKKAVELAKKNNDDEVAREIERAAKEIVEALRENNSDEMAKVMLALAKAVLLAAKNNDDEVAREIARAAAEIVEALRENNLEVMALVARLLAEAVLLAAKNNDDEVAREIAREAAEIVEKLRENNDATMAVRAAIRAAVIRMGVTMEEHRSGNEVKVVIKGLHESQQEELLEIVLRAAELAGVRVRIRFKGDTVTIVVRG
The data set is described as above.

Data set [2] addresses T8, LHD206 chainB.
T8 construct: also called LHD206B
T8 chain: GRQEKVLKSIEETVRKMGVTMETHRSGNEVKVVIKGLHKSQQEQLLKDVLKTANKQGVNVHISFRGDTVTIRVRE
Kind of data set: BLI, global kinetic fit, 1:1 model. As for the experimental part:
(§1) Biolayer interferometry experiments were performed on an OctetRED96 BLI system (ForteBio, Menlo Park, CA). Streptavidin coated biosensors were first equilibrated for at least 10 minutes in Octet buffer (10 mM HEPES pH 7.4, 150 mM NaCl, 3 mM EDTA, 0.05% Surfactant P20) supplemented with 1 mg/ml Bovine Serum Albumin (SigmaAldrich). Enzymatically biotinylated designs were immobilized onto the biosensors by dipping the biosensors into a solution with 10-50 nM protein for 30-120 s. This was followed by dipping in fresh octet buffer to establish a baseline for 120 s. Titration experiments were performed at 25° C. while rotating at 1,000 r.p.m. Association of designs was allowed by dipping biosensors in solutions containing designed protein diluted in octet buffer until equilibrium was approached followed by dissociation by dipping the biosensors into fresh buffer solution in order to monitor the dissociation kinetics. Steady-state and global kinetic fits were performed using the manufacturer's software (Data Analysis 9.1) assuming a 1:1 binding model.
A general note: BLI is a label-free optical method that tracks binding on a fibre tip over time.

Data set [3] concerns the target T8, LHD206 chainB. Kind of data set: BLI, steady state fit. Here is the method: as §1

B1: DF202 (designed binder)
chain: NTHFIVVHGTEEARQLAEEIVRLIAEALGTEVRFEKKDGLLSIEVKNLPEEAQRLIQKLLQLAVRIAQAAKSGDNDQLRELAEDALRLAKEAEKLGDLGAAAVAARLAVEAAKQAGDNDVLRKVAEQALRIAKEAEKQGLVDVAVEAARVAVEAAKQAGDNDVLRKVAEQALRIAKEAEKQGNVEVAVKAARVAVEAAKQAGDNDVLRKVAEQALRIVREALKQGNKEVAKKALEVAIEAANQAGDQKLLAEILLLAIEVLVVEMGVTMETHKSGNKVKVVIKGLHESQQETLRKLVHELLRKLGVVAVTQKHGDTVTIYVTEGGSHHWGSGSHHHHHH
notes: Bivalent connector
B1: the binding result with 202B57 and with DFA0 was “binds” throughout.

B2: 101A53 (designed binder)
chain: HHHHHHGSGLNDIFEAQKIEWHEAENLYFQSGSNDEKEKLKELLKRAEELAKSPDPEDLKEAVRLAEEVVRERPGSNLAKKALEIILRAAEELAKLPDPEALKEAVKAAEKVVREQPGSNLAKKALEIILRAAAALANLPDPESRKEADKAADKVRREQPGSELAVVAAIISAVARMGVKMELHPSGNEVKVVIKGLHIKQQRQLYRDVREAAKKAGVEVEIEVEGDTVTIVVRG
notes: also called LHD101A53
With B2, the binding result is given as “no binding” in data set [1]; “binds” with DF284B; “binds” with 101B14; “binds” with 101B82; “binds” in the data set with 101B62; “binds” with LHD101 B8.

B3: LHD206 chainA (designed binder)
chain: TDELLERLRQLFEELHERGTEIVVEVHINGRKTEIEVQGIDKRLLKIILEVIREEIEREGSSEVEVNVHSGGQTWTFNEK
notes: also called LHD206A
The Kd is the concentration at which binding is half-saturated. A higher Kd goes with lower affinity. As usually defined, the koff is the rate constant with which the complex falls apart. Lower therefore signals a long-lived complex. As usually defined, the kon is a measure of how fast the partners come together. A lower kon goes with slow association. In the data set with LHD206 chainB [2], B3 returned a dissociation constant (Kd) of 2.8 nM, a koff of 0.00075 s⁻¹ and an association rate constant (kon) of 270000 M⁻¹ s⁻¹. The equilibrium dissociation constant (Kd) in the data set with LHD206 chainB [3] was determined as 8.4 nM.

The record behind these values is patent US20240368233A1 (University of Washington, published 2024).
